B1: GPC-A antibody 25.10C (IgG) (antibody, V domains shown)
VH: QVQLQESGGGLVKPGGSLRLSCTASGFNFNKYNMNWVRQAPGKGLEWVSSISALSTYIYYADSLKGRFTVSRDNAKNSLFLQMNSLRDDDTAVYYCAREIRRASTWSADLWGRGTLVTVSS
VL: DIQMTQSPSSLSASVGDRVIITCRASQSISSSLNWYQQKPGKAPKLLIYAAVNLETGVPSRFSGSGFGTDFTLAISNVQPEDFATYYCQQSDTRTFGRGTKLDVK
notes: copies: 2 + 2
B2: GPC-B antibody 18.5C (IgG) (antibody, V domains shown)
VH: EVQLVQSGGGLVRPGGSLRLSCAAAGFTFKSYSMNWVRQAPGRGLEWVSSITSGGSKTYYADVVKGRFTVSRDNAKQSLYLQMNSLRAEDTAIYFCARSLHSTSQPSYMDVWGRKITVIVSS
VL: DIVLTQSPGTLSLSPGERATLSCRASQSVISYYVAWYQHKGGQAPRLLIYGASSRATGVPDRFSGSGSGTDFTLTISSLEPEDFALYYCQYYGSSPLWAFGQGTKVEIK
notes: copies: 2 + 2
B3: engineered GPC-B antibody 18.5C-M30 (IgG) (antibody, V domains shown)
VH: EVQLVQSGGGLVRPGGSLRLSCAAAGFTFKSYSMNWVRQAPGRGLEWVSSITSRGGSKTYYADVVKGRFTVSRDNAKQSLYLQMNSLRAEDTAIYFCARSRHSTSQPSYMDVWGRKITVIVSS
VL: B2 VL
notes: copies: 2 + 2

Bounds are passed on as bounds.

The first assay deals with LI-LASV-pfGP soluble ectodomain monomer (lineage I Lassa virus prefusion glycoprotein) (Lassa virus lineage I, strain Pinneo, stabilised). The experiment in a line: BLI; Octet Red384; […] (AHC) capture sensors at 2.5 ug/mL; […]; 1x kinetics buffer (PBS, 0.1% BSA, 0.02% Tween 20); 1:1 fit; […]. As to conditions: both partners purified. In general terms: In BLI a coated tip is dipped into the sample, and binding shifts an interference pattern.
For orientation: Kd means a measure of binding affinity in units of concentration. A high value points to a looser complex. What is called koff is a measure of how fast the partners let go of each other. Lower therefore signals a long-lived complex. The kon is the second-order rate constant of association. B1 yielded a Kd of 3.52 nM, an off-rate constant (koff) of 0.000387 s⁻¹ and a kon of 110000 M⁻¹ s⁻¹.

In turn, B2 showed a Kd of 2.86 nM, a koff of 0.00235 s⁻¹ and a kon of 819000 M⁻¹ s⁻¹.

Regarding B3, binding was characterised by a dissociation constant (Kd) of 0.559 nM, the koff is 0.000423 s⁻¹ and the kon amounted to 757000 M⁻¹ s⁻¹.

The next assay concerns the target LIV-GP, soluble lineage IV LASV pfGP monomer (Lassa virus lineage IV, strain Josiah, stabilised). The assay is described as above. As to conditions: both partners purified.
Regarding B1, the equilibrium dissociation constant (Kd) is below 0.001 nM, the koff is below 1e-07 s⁻¹ and the kon was 150000 M⁻¹ s⁻¹.

For the molecule B2, the Kd turned out to be 0.091 nM, the koff stood at 7.8e-05 s⁻¹ and the on-rate constant (kon) is 858000 M⁻¹ s⁻¹.

Molecule B3 yielded a Kd of 0.047 nM, a koff of 3.67e-05 s⁻¹ and a kon of 780000 M⁻¹ s⁻¹.

The values are drawn from PMC9426445 (mBio, 2022).
